Experimental data reported in patent US20260242478A1 (published 2026).

What was measured:
PSMA Fab (006 PSMA Fab) [1] = biological target: T1, PSMA Fab (006 PSMA Fab) (biotinylated for capture on neutravidin plates (site not stated)); test: phage ELISA as above, wells pre-incubated with PSMA antigen as competitor
T1 construct: also called Anti-PSMA Fab; anti-PSMA Fab

PSMA Fab (006 PSMA Fab) [2] = biological target: T1, PSMA Fab (006 PSMA Fab); test: phage ELISA: clonal phage supernatant on biotinylated PSMA Fab captured on neutravidin plate, anti-M13-HRP detection
Protocol: (§1) Clonal phage were harvested as crude supernatants and screened via standard ELISAs. […] Prior to the addition of clonal phage. wells were incubated with blocking buffer and PSMA antigen or blocking buffer alone. Without washing or aspirating, clonal phage supernatants were then added to the wells and incubated for a short time. Wells were then washed followed by detection of bound phage using a horse radish conjugated anti-M13 antibody.

PSMA Fab [3] = biological target: T2, PSMA Fab; test: clonal phage ELISA; biotinylated PSMA Fab on neutravidin plate; anti-M13 HRP detection
T2 construct: also called Anti-PSMA Fab; 006 PSMA Fab
Protocol: as §1

PSMA Fab [4] = biological target: T2, PSMA Fab; test: clonal phage ELISA; biotinylated PSMA Fab on neutravidin plate, wells pre-incubated with PSMA antigen as competitor; anti-M13 HRP detection;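 further: crude clonal phage supernatants added to antigen-treated wells without a wash, incubated briefly, then bound phage read out via horse radish–conjugated anti-M13 antibody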
Protocol: as §1

PSMA Fab (006 PSMA Fab) [5] = biological target: T3, PSMA Fab (006 PSMA Fab); test: phage ELISA; biotinylated PSMA Fab on neutravidin plate, clonal phage supernatant, anti-M13 HRP; blocking buffer alone
T3 construct: also called Anti-PSMA Fab; anti-PSMA Fab
Protocol: as §1

PSMA Fab (006 PSMA Fab) [6] = biological target: T3, PSMA Fab (006 PSMA Fab); test: phage ELISA; biotinylated PSMA Fab on neutravidin plate pre-incubated with PSMA antigen as competitor, clonal phage supernatant, anti-M13 HRP
Protocol: as §1

B1: Phage-3268 (peptide)
peptide: VEVKCVPEWMCTGF
notes: Peptide-180 library clone, tested as clonal M13 phage displaying the peptide fused to pIII
Phage binding ELISA signal, Anti-PSMA Fab in presence of PSMA (PSMA Fab (006 PSMA Fab) [1]): 0.0868 | Phage binding ELISA signal, Anti-PSMA Fab (PSMA Fab (006 PSMA Fab) [2]): 1.91

EIMLCKPEWMCYGF [Phage-3265]
Phage binding ELISA signal, Anti-PSMA Fab (PSMA Fab [3]): 1.91 | Phage binding ELISA signal, Anti-PSMA Fab in presence of PSMA (PSMA Fab [4]): 0.0998

QPGYCVPQWMCMGF [Phage-3258]
Phage binding ELISA signal, Anti-PSMA Fab (PSMA Fab [3]): 1.92 | Phage binding ELISA signal, Anti-PSMA Fab in presence of PSMA (PSMA Fab [4]): 0.0948

YGALCVPAWMCSGF [Phage-3254]
Phage binding ELISA signal, Anti-PSMA Fab (PSMA Fab [3]): 1.93 | Phage binding ELISA signal, Anti-PSMA Fab in presence of PSMA (PSMA Fab [4]): 0.0866

LGNLCVPPWMCQGF [Phage-3257]
Phage binding ELISA signal, Anti-PSMA Fab (PSMA Fab [3]): 1.92 | Phage binding ELISA signal, Anti-PSMA Fab in presence of PSMA (PSMA Fab [4]): 0.241

MMHNCIPYWMCAGF [Phage-3249]
Phage binding ELISA signal, Anti-PSMA Fab (PSMA Fab (006 PSMA Fab) [5]): 1.93 | Phage binding ELISA signal, Anti-PSMA Fab with PSMA antigen (PSMA Fab (006 PSMA Fab) [6]): 0.101

EENFCVPKWMCEGF [Phage-3264]
Phage binding ELISA signal, Anti-PSMA Fab (PSMA Fab [3]): 1.91 | Phage binding ELISA signal, Anti-PSMA Fab in presence of PSMA (PSMA Fab [4]): 0.126

B2: Phage-3267 (peptide)
peptide: LPYMCTPIWMCIGF
notes: as for B1
Phage binding ELISA signal, Anti-PSMA Fab in presence of PSMA (PSMA Fab (006 PSMA Fab) [1]): 0.143 | Phage binding ELISA signal, Anti-PSMA Fab (PSMA Fab (006 PSMA Fab) [2]): 1.91

GVIACKPHWMCTGF [Phage-3251]
Phage binding ELISA signal, Anti-PSMA Fab (PSMA Fab (006 PSMA Fab) [5]): 1.93 | Phage binding ELISA signal, Anti-PSMA Fab with PSMA antigen (PSMA Fab (006 PSMA Fab) [6]): 0.085

EYQVCKPTWMCTGF [Phage-3266]
Phage binding ELISA signal, Anti-PSMA Fab (PSMA Fab [3]): 1.91 | Phage binding ELISA signal, Anti-PSMA Fab in presence of PSMA (PSMA Fab [4]): 0.0904

VSIVCVPEWMCSGF [Phage-3262]
Phage binding ELISA signal, Anti-PSMA Fab (PSMA Fab [3]): 1.92 | Phage binding ELISA signal, Anti-PSMA Fab in presence of PSMA (PSMA Fab [4]): 0.0721

PTPVCKPGWMCDLF [Phage-3261]
Phage binding ELISA signal, Anti-PSMA Fab (PSMA Fab [3]): 1.92 | Phage binding ELISA signal, Anti-PSMA Fab in presence of PSMA (PSMA Fab [4]): 0.0845

FFKMCIPEWMCSGF [Phage-3263]
Phage binding ELISA signal, Anti-PSMA Fab (PSMA Fab [3]): 1.91 | Phage binding ELISA signal, Anti-PSMA Fab in presence of PSMA (PSMA Fab [4]): 0.205

MPMHCVPSWMCEGF [Phage-3252]
Phage binding ELISA signal, Anti-PSMA Fab (PSMA Fab (006 PSMA Fab) [5]): 1.93 | Phage binding ELISA signal, Anti-PSMA Fab with PSMA antigen (PSMA Fab (006 PSMA Fab) [6]): 0.0901

IVPWCKPAWMCAVS [Phage-3255]
Phage binding ELISA signal, Anti-PSMA Fab (PSMA Fab [3]): 1.93 | Phage binding ELISA signal, Anti-PSMA Fab in presence of PSMA (PSMA Fab [4]): 0.12

AEMRCIPQWMCSGL [Phage-3259]
Phage binding ELISA signal, Anti-PSMA Fab (PSMA Fab [3]): 1.92 | Phage binding ELISA signal, Anti-PSMA Fab in presence of PSMA (PSMA Fab [4]): 0.138

NVPVCIPDWMCVGF [Phage-3250]
Phage binding ELISA signal, Anti-PSMA Fab (PSMA Fab (006 PSMA Fab) [5]): 1.93 | Phage binding ELISA signal, Anti-PSMA Fab with PSMA antigen (PSMA Fab (006 PSMA Fab) [6]): 0.0851

ENVRCEPMWMCKGF [Phage-3260]
Phage binding ELISA signal, Anti-PSMA Fab (PSMA Fab [3]): 1.92 | Phage binding ELISA signal, Anti-PSMA Fab in presence of PSMA (PSMA Fab [4]): 0.0648

DGFICRPEWMCQWL [Phage-3256]
Phage binding ELISA signal, Anti-PSMA Fab (PSMA Fab [3]): 1.93 | Phage binding ELISA signal, Anti-PSMA Fab in presence of PSMA (PSMA Fab [4]): 0.0653

SIPKCMPEWMCIGL [Phage-3253]
Phage binding ELISA signal, Anti-PSMA Fab (PSMA Fab [3]): 1.93 | Phage binding ELISA signal, Anti-PSMA Fab in presence of PSMA (PSMA Fab [4]): 0.0587
